Source: the supplement of paper PMC9170038

Test system: MS2 coat protein
Assay: apparent KD of MS2 coat protein; designed switch direction (-1 OFF switch, 1 ON switch): -1; higher = weaker reporter binding
Method in brief: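 Designed RNA switches sharing common flanks were transcribed on Illumina chips by stalled E. coli RNA polymerase. They were titrated with SNAP-549-labelled MS2 coat protein, from 0.7 or 1.5 nM doubling to 3 µM, in Tris-HCl pH 7.5 buffer with KCl, MgCl2, BSA, DTT, tRNA and Tween-20. Titrations ran without input, with 200 uM small-molecule ligand, or with an oligonucleotide input. The apparent KD of each design is the median over its clusters, after curve-fitting of normalised cluster fluorescence.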

[1] = Eterna round: R95, input ligand: FMN 200 uM
[2] = Eterna round: R95, input ligand: microRNA oligo, concentration not stated
[3] = Eterna round: R95, input ligand: none

Sequence	apparent KD of MS2 coat protein (input ligand: FMN 200 uM) [nM]	apparent KD of MS2 coat protein (input ligand: none) [nM]	apparent KD of MS2 coat protein [1] [nM]	apparent KD of MS2 coat protein [2] [nM]	apparent KD of MS2 coat protein (input ligand: microRNA oligo, concentration not stated) [nM]	apparent KD of MS2 coat protein [3] [nM]
ACAAGCUCUGUGGGUGGGUACAUGAGGAUCACCCAUGUUUUGCUCGUCUUGUGGGCCCGGGCCCGCGGCCCGGGCCC [-41.4, -69.7, A 12%] (Eterna round: R97, puzzle: Sensor, turn-off variant 1)	604	1180				
CUUAGCCUAAAAUCACGCAAGCUUUCUGCUUGUCUUAAGACAUGAGGAUCACCCAUGUCCGGGCUGAACUUAUGGAA [Inve] (puzzle: Sensor v3, turn-off variant 2)			18.8	22.5		
GCAGCAUAGAUGAAAAUCUGAUACAUGAGGAUCACCCAUGUUCAGGAUAUGGUCUGGAUUACAGGCCAGAAGGGAACAAGCUGC [Eli exng3 - 011] (Eterna round: R96, puzzle: Exclusion NG 3)	14	12			10.3	
AAUAAGCGAGGAUAUACAUGAGGAUCACCCAUGUGGACCGGGUGUUCAGCAAAUAAAAGUAGAAGGCGCAAAAG [Tibiater] (puzzle: Exclusion 3)			29.1	46.8		25.8
GGUCUACAUGAGGAUCACCCAUGUAAGGAUAUCGUCACUGGAGCCUCGGCUCCAGUGACGAGAAGGUGCAUAAU [E1/11-A2] (Eterna round: R97, puzzle: Exclusion 1)	48.9	36.6				
GUAUGUUAUGAGGAUAUCGGUGAACAUACACAUCGAGAAGGCAUGACAUGAGGAUCACCCAUGUCAAGGAUGUA [Exclusion 6 - B - 18:b] (puzzle: Exclusion 6)			25.5	15.3		20.8
GAAAAGGUAGGAUAUACGAAAAAAAAGGGUAGAAAAAAAACACAUGAGGAUCACCCAUGUAGAAGGACCAAAAU [salish99_ex2_r3_051] (puzzle: Exclusion 2)			76.9	29.2		26.7
GAUACCUAUGUAAGGAUAUAUAAAGAGAGCCGCCUGUAGAAGGUACAUGAGGAUCACCCAUGUUGGGAGACCGA [Eternabot (L1) Solution 17] (Eterna round: R97, puzzle: Brourd's mod of Exclusion 4)	1160	1390				
AGUAGUAGUAUCCGAUCCUACAUGAGGAUCACCCAUGUGGCUAGACGUGCACGCGAUGCUCGUCAGACUACCAGAUG [salish99_TOv1_r3_038] (puzzle: Sensor v3, turn-off variant 1)			404	269		506
AUAAUACAUGAGGAUCACCCAUGUGAGGAUAUGAGCCUACAUUCACGCAGAGAGAAGGUCAGAAGGCACUUGGU [Eternabot (L2) Solution 65] (Eterna round: R97, puzzle: Exclusion 1)	211	63.3				
GUCCAACAUGAGGAUCACCCAUGUCAGGAUAUGCGAAUUUCAUCAAAAGAUGAAAUUUGCAGAAGGGACUGGAC [Omei Ex1 A29] (Eterna round: R97, puzzle: Exclusion 1)	44	23.3				
UAUUUGCAAGCGAGAUCCCACAUGAGGAUCACCCAUGUUCUUGGAAAGUACAGAAUUACUGUACAAGCUCGUCUUAU [Winner reversed engineered 32] (Eterna round: R97, puzzle: Sensor, turn-off variant 1)	22.1	25.7				
GACAAGGGAGGAUAUGCACAAGGGAUAUCUGACAUGCCGUUACAUGAGGAUCACCCAUGUAGAAGGCCCGAAUA [Didiin] (puzzle: Exclusion 2)				13.3		
CGUGGCCAAGGAUAUGGGUAUCAUGACAUGAGGAUCACCCAUGUAUAGAGGAUCCAUAGCCCAGAAGGUGGUCCGG [Eternabot (L1) Solution 85] (Eterna round: R97, puzzle: Exclusion 5)	44	17				
